The source of these data is patent US20190071490A1, “Preventing Post-Ictal Headaches” (Beth Israel Deaconess Medical Center, Inc., priority 2017, published 2019).

For experiment [1], the target named is T1, 38A (25-38A) human α-CGRP (Homo sapiens, UniProt P06881).
T1 construct: 25-38A; 24; purchased GenScript Corporation, New Jersey or Global Peptide Services, Colorado
Description: Biacore affinity of G1 Fab to CGRP variant on chip. The following applies: 38A (25-38A) on chip, 37° C. Format: binding. As to the method: Biacore assay for affinity determination. […] All Biacore assays were conducted in HBS-EP running buffer (10 mM HEPES pH 7.4, 150 mM NaCl, 3 mM EDTA, 0.005% v/v polysorbate P20). CGRP surfaces were prepared by diluting the N-biotinylated CGRP to a concentration of less than 0.001 mg/mL into HBS-EP buffer and injecting it across the SA sensor chip using variable contact times. Low capacity surfaces, corresponding to capture levels <50 response units (RU) were used for high-resolution kinetic studies, whereas high capacity surfaces (about 800 RU of captured CGRP) were used for concentration studies, screening, and solution affinity determinations. […] Samples were typically injected for 1 minute at 100 μL/min and dissociation times of at least 10 minutes were allowed. After each binding cycle, surfaces were regenerated with 25 mM NaOH in 25% v/v ethanol, which was tolerated over hundreds of cycles. An entire titration series (typically generated in duplicate) was fit globally to a 1:1 Langmuir binding model using the BIAevaluation program. This returned a unique pair of association and dissociation kinetic rate constants (respectively, kon and koff) for each binding interaction, whose ratio gave the equilibrium dissociation constant (KD=koff/kon).

The test system of experiment [2] is central trigeminovascular neurons (medullary dorsal horn). Description: Seizure (picrotoxin)-induced activation of trigeminovascular neurons, single-unit recording. Type of experiment: in vivo. The conditions noted are these: rat. The text has this: Cortical electrodes were used to trace the magnitude, extent and progression of epileptiform seizures.
Single-unit recordings were obtained from neurons in the trigeminal ganglion and dorsal horn as described in previous studies (Burstein et al. (1998) J. Neurophysiol. 79: 964-82; Strassman and Levy (2006) J. Neurophysiol. 95: 1298-306; Strassman et al. (1996) Nature 384: 560-4; Zhang et al. (2010) J. Neurosci. 30: 8807-14; and Zhang et al. (2011) Ann. Neurol. 69: 855-65). Experiments were done in adult Sprague-Dawley rats (250 g to 350 g). Animals were anesthetized with urethane (1.2-1.5 g/kg), artificially ventilated with oxygen, and paralyzed. Body temperature was controlled, and end-tidal CO2 and oxygen saturation was monitored. For ganglion recordings, four separate craniotomies were made: over the contralateral cortex, to advance the microelectrode; over the ipsilateral parietal cortex, and the ipsilateral occipital cortex, for application of the picrotoxin and recording of electrocorticogram activity; and over the ipsilateral transverse sinus, for electrical and mechanical stimulation of dural afferents, and lidocaine application. For dorsal horn recording, the same craniotomies were made over the ipsilateral cortex and the ipsilateral transverse sinus, but no contralateral craniotomy was made. Instead, a laminectomy was made to expose the upper cervical spinal cord (C1-2) for microelectrode recording. In both the trigeminal ganglion and the dorsal horn recording experiments, the search stimulus for finding dura-sensitive neurons is single-shock electrical stimulation applied to the dura covering the transverse sinus.
Seizure was induced by application of picrotoxin to the surface of the cerebral cortex (10 μl, applied on a small piece of gelfoam, at a concentration of either 5 mM or 100 mM, for focal or generalized seizure, respectively). For verification of seizure induction, cortical activity was recorded with a glass micropipette (0.9% saline, ˜1 megohm, 7 μm tip) placed just below the surface of the cerebral cortex, at the parietal and the occipital site. […]

For experiment [3], the system named is first-order trigeminovascular neurons (A-delta and C-type meningeal nociceptors). Description: Single-unit recording of first-order neurons in the trigeminal ganglion evoked by CSD. Format: in vivo, rat. The following applies: male rats. As to the method:
CSD was induced by pinprick 4 hours after drug/isotype infusion.

B1: G1: humanized monoclonal anti-CGRP antagonist antibody; heavy chain SEQ ID NO:11, light chain SEQ ID NO:12 (antibody)
heavy: EVQLVESGGGLVQPGGSLRLSCAASGFTFSNYWISWVRQAPGKGLEWVAEIRSESDASATHYAEAVKGRFTISRDNAKNSLYLQMNSLRAEDTAVYYCLAYFDYGLAIQNYWGQGTLVTVSSASTKGPSVFPLAPCSRSTSESTAALGCLVKDYFPEPVTVSWNSGALTSGVHTFPAVLQSSGLYSLSSVVTVPSSNFGTQTYTCNVDHKPSNTKVDKTVERKCCVECPPCPAPPVAGPSVFLFPPKPKDTLMISRTPEVTCVVVDVSHEDPEVQFNWYVDGVEVHNAKTKPREEQFNSTFRVVSVLTVVHQDWLNGKEYKCKVSNKGLPSSIEKTISKTKGQPREPQVYTLPPSREEMTKNQVSLTCLVKGFYPSDIAVEWESNGQPENNYKTTPPMLDSDGSFFLYSKLTVDKSRWQQGNVFSCSVMHEALHNHYTQKSLSLSPGK
light: EIVLTQSPATLSLSPGERATLSCKASKRVTTYVSWYQQKPGQAPRLLIYGASNRYLGIPARFSGSGSGTDFTLTISSLEPEDFAVYYCSQSYNYPYTFGQGTKLEIKRTVAAPSVFIFPPSDEQLKSGTASVVCLLNNFYPREAKVQWKVDNALQSGNSQESVTEQDSKDSTYSLSSTLTLSKADYEKHKVYACEVTHQGLSSPVTKSFNRGEC
In the case of B1, the “KD (nM)” value in experiment [1] is “No binding detected”. The “neurons activated by the seizure (number/total)” value in experiment [2] (30 mg/kg i.v. four hours before induction of seizure, medullary dorsal horn, untreated 28/30) is 2/13. In experiment [2] (30 mg/kg i.v. four hours before induction of seizure, medullary dorsal horn, untreated 93%), the “neurons activated by the seizure (percent)” value was found to be 15%. For the same molecule, in experiment [2] (30 mg/kg intravenously four hours before induction of seizure), the “activation of central trigeminovascular neuron by seizure (FIG. 9)” value is listed as “prevented the activation of a central trigeminovascular neuron but not the occurrence of a seizure”. Further, in experiment [3], the “activation of meningeal nociceptors by CSD (FIGS. 23A and 23B)” value was “prevents the activation of most a-delta and some C-type meningeal nociceptors”. Moreover, in experiment [3] (30 mg/kg IV 4 hours before CSD), the “C-fibers activated by CSD” value worked out at 23% and the “a-delta fibers activated by CSD” value is recorded as 14%. For the same molecule, the “neurons tested that were activated by CSD” value in experiment [3] (30 mg/kg IV 4 hours before CSD, all first-order neurons) was 20%.
